# Data taken from the nanobody polyreactivity screen of Harvey et al. (2022).
# Test: yeast display, Sf9 membrane polyspecificity reagent, FACS + sequencing; frameworks hold sequencing errors
# Outline: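 Galactose-induced (36–48 hours) yeast carrying a synthetic nanobody display library were exposed to 10% biotinylated, detergent-solubilized Sf9 membrane reagent at 4 °C for 1 hour. FACS followed streptavidin microbead enrichment, using low and high (top ~1%) gates for expression (anti-HA) and reagent binding (streptavidin). Colony PCR, MiSeq 2 × 250 sequencing and CDR-length filtering followed. Labels for polyreactivity reflect the gate of origin.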
row,Sequence,polyreactivity (PSR sort gate)
1,QVQLVESGGGLVQAGGSLRLSCAASGSIFYPYARGWYRQAPGKERELVASITINDGSTYYADSVKGRFTISRDNAKNTVYLQMNSLKPADTAVYYSAVDWLSVTSTIKFEMDYWGQGTQVTVSS,low polyreactivity
2,QVQLVESGGGLVQAGGSLRLSCAASGSIFYQNAMGWYRQAPGKERELVAAITSSGGSTYYADSVKGRFTISRDNAKNTVYLQMNSLKPEDTAVYYCNKYFSWRPYSYYYWGQGTQVTVSS,high polyreactivity
3,QVQLVESGGGLVQAGGSLRLSCAASGSIFYQNAMGWYRQAPGKESELVAAISWRGDSTSYADSVKGRFTISRDNAKNTVYLQMNSLKPEDPAVYYCATAHDYAFYRYWYVPSEYNYWGQGTLVTVSS,low polyreactivity
4,QVQLVESGGGLVQAGGSLRLSCAASGSIFYQYAMGWYRLAPGKERELVARITGSSGSTYYADSVKGRFTISRDNAKNTVYLQKNSLKPEDTAVYYCATDNYLIGDYWGQGTQVTVSS,high polyreactivity
5,QVQLVESGGGLVQAGGSLRLSCAASGSIFYRNAMGWYRQAPGKERELVAAISASGGSTYYADSVKGRFTISRDNAKITVYLQMNSLKPEDTAVYYCAVEYRKSRSYAPMGYWGQGTQVTVSS,high polyreactivity
6,QVQLVESGGGLVQAGGSLRLSCAASGSIFYRYAKGWYRQPPGKETELVAAIRTTGGRTYYADSVKGRFTISRDNAKNTVYLQMNSLKPADTAVYYCNALQAGVSYDYWGQGTQVTVSS,high polyreactivity
7,QVQLVESGGGLVQAGGSLRLSCAASGSIFYRYAMGWSRPAPRKERELVAAISRSGGRTYYADSVKGRFTISRDISKKTVYLQMYSLKAEDTAVYYCADESNVGTDLGGDSWGQGTQVTVSS,high polyreactivity
8,QVQLVESGGGLVQAGGSLRLSCAASGSIFYRYAMGWYRPAPGKERELVAAITSGGTYYADSVKGRFTISRDNAKNTVYLQMNSLKPEDTAVYYCNRFSYPPSWYDYWGQGTQVTVSS,low polyreactivity
9,QVQLVESGGGLVQAGGSLRLSCAASGSIFYRYAMGWYRQAPGKERELVAAIRWSGGSTYYADSVKGRFTISRDNAKNTVYLQMNSLKPEDTAVYYCNGTWAYRGHGYWGQGTQVTVSS,low polyreactivity
10,QVQLVESGGGLVQAGGSLRLSCAASGSIFYRYAMGWYRQAPGKERELVAAISRSGASTYYADSVKGRFTISRDNAKNTVYLQMNSLKPEDTAVYYCNALFSKFTNRYDYWGQGTQVTVSS,high polyreactivity
11,QVQLVESGGGLVQAGGSLRLSCAASGSIFYRYAMGWYRQAPGKERELVAAISSTGSTYYADSVKGRFTISRDNAKNTVYLQMNSLKPEDTAVYYCAARQGFRSYRRYDYWGQGTQVTVSS,high polyreactivity
12,QVQLVESGGGLVQAGGSLRLSCAASGSIFYRYAMGWYRQAPGKERELVAAISSTGSTYYADSVKGRFTISRDNAKNTVYLQMNSLKPEDTAVYYCAARQGYRSYRRYDYWGQGTQVTVSS,high polyreactivity
13,QVQLVESGGGLVQAGGSLRLSCAASGSIFYSNAMGWYRQAPGKERELVAAITLSGRRTYYADSVKGRFTISRDNAKNTVYLQMISLKPEDTADYYCATVPYKTGYKFEYWGQGTQVTVSS,high polyreactivity
14,QVQLVESGGGLVQAGGSLRLSCAASGSIFYSNAMGWYRQAPGKERELVAAITWSGGSTYYADSVKGRFTFSRDNAKNTVYLQKNSLKPEDTSVYYCNARRNVRQTFGYEDWGQGTQVTVSS,high polyreactivity
15,QVQLVESGGGLVQAGGSLRLSCAASGSIFYSNVMGWYRLAPGKERELVAAITRGGGTNYADSVKGRFTISRDNAKNTVYLQMNSLKPEDTAVYYCNRDPQKYRWIPRYDYWGQGTQVTVSS,low polyreactivity
16,QVQLVESGGGLVQAGGSLRLSCAASGSIFYSNVMGWYRQATGKERELVAAIRYSGVGTYYADSVKGRFTISRDNAKNTVYLQMNSLKPEDTAVYYSNAVTKVGYLRRRDYWGQGTQVTVSS,low polyreactivity
17,QVQLVESGGGLVQAGGSLRLSCAASGSIFYSYAMGWYRQAPGKERELVAAINSGGRTYYADSVKGRFTISRDNAKNTVYLQMNSLKPEDTAVYYCAARHRWGRAYDYWGQGTQVTVSS,high polyreactivity
18,QVQLVESGGGLVQAGGSLRLSCAASGSIFYSYAMGWYRQAPGKERELVAAITTGGSTYYADSVKGRFTISRDNAKNTVYLQMNSLKPEDTAVYYCAADFKPTVTNEPKELDYWGQGTQVTVSS,low polyreactivity
19,QVQLVESGGGLVQAGGSLRLSCAASGSIFYSYAMGWYRQAPGKERELVAGIRSDGNTNYADSVKGRFTISRDNAKNTVYLQMNSLKPEDTAVYYCARLRYFLLNGSLRYGTSDRDYWGQGTQVTVSS,high polyreactivity
20,QVQLVESGGGLVQAGGSLRLSCAASGSIFYSYAMGWYRRAPGKERELVARITSSTGRTYYADSVKGRFTISRDNAKNTVYLQMNSLKAEDTAVYYCNVVVKGAWDYYPYDYWGQGTQVTVSS,high polyreactivity
21,QVQLVESGGGLVQAGGSLRLSCAASGSIFYSYVMGWYRQAPGKERELVAAITTGGSTYYADSVKGRFTISRDNAKNTVYLQMNSLKPEDTAVYYCAAELVGTEYDYWGQGTQVTVSS,low polyreactivity
22,QVQLVESGGGLVQAGGSLRLSCAASGSIFYTNAMGWYRQAHGKERELVAAIRTGGSTNYADSVKGRFTISRDNAKNTDYLQMNSLTPDDTAVYYCNADVYIRDLFYPYIYTYDYWGQGTQVTVSS,low polyreactivity

row,Sequence,polyreactivity (PSR sort gate)
1,QVQLVESGGGLVQAGGSLRLSCAASGSIFYTNDMGWYRQAPGKERELVAAIRYSGVSTYYADSVKGRFTISRDNAKNTVYLQMNSLKPEDTAVYYCATTAYGYRSYSQSQQDMEYWGQGTQVTVSS,high polyreactivity
2,QVQLVESGGGLVQAGGSLRLSCAASGSIFYVNAMGWNRQPPGKERELVAGITSGGRTNYADSVKGRFTISRDNAKNSVYLQMNSLKPEDTAVYYCATEIRITGLYRYDYWGQGTQVTVSS,low polyreactivity
3,QVQLVESGGGLVQAGGSLRLSCAASGSIFYVNGMGWYRQAPGKERELVARITLSGTSTYYADSVKGRFTISRDNAKNTVYLQRNSLKPEDPAVYYCAAPYFTYGQDEDEYWGQGTQGTVSS,low polyreactivity
4,QVQLVESGGGLVQAGGSLRLSCAASGSIFYVYAMGRYRQAPGKERELVASITRRRTNYADSVKVRFTISRDNAKNTVYLQMNSLKPEDTAVYYCAATTYVRQYATYDYWGQGTQVTVSS,high polyreactivity
5,QVQLVESGGGLVQAGGSLRLSCAASGSIFYVYAMGRYRQAPGTEWELVAAISSGDISYYADSVKGRFTISRDNAKNTVYLQKNSLKPEDTAVYYCNAERLGNTLSPGGDDYWGQGTQVTVSS,low polyreactivity
6,QVQLVESGGGLVQAGGSLRLSCAASGSIFYVYAMGWYIQAPGKERELVASIRWIGDRTYYADSVKGRFTISRDNAKNTVYLQMNSLKPEDTAVYYCAADPRYYGYYYLTPRYYYWGQGTQVTVSS,high polyreactivity
7,QVQLVESGGGLVQAGGSLRLSCAASGSIFYVYAMGWYRQAPGKERELVAAINTSGGSTFYADSVKGRFTISRDNAKNTVYLQMNSLKPEDTAVYYCAAERFRYRSTDTMGYWGQGTQVTVSS,low polyreactivity
8,QVQLVESGGGLVQAGGSLRLSCAASGSIFYVYAMGWYRQAPGKERELVAAISRRGARTYYADSVKGRFTISRDTAKYPVYLQMNSLQPEDTAVYYCNADQYSTVGYSAEYEYWGHGTQVTVSS,low polyreactivity
9,QVQLVESGGGLVQAGGSLRLSCAASGSIFYVYAMGWYRQAPGKERELVAAITSSGTTNYADSVKGRFTISRDNAKNTVYLQMNSLKPEDTAVYYCAADFYYYKKQYDYWGQGTQVTVSS,low polyreactivity
10,QVQLVESGGGLVQAGGSLRLSCAASGSIFYVYAMGWYRQAPGKERELVADITTRDGDTYYADSVKGRFTISRDNAKNTVYLQMNSLKPEDTAVYYCAADLNAYPQRAYDYWGQGTQVTVSS,low polyreactivity
11,QVQLVESGGGLVQAGGSLRLSCAASGSIFYVYAMGWYRQAPGKEREMVAAISKSGGSTYYADSVKGRFTISRDNAKNTVYLQMNSLKPEDTADYYCAAYFSYGSIIEDYWGQGTQVTVSS,low polyreactivity
12,QVQLVESGGGLVQAGGSLRLSCAASGSIFYWNAMGWYRQAPGKEREFVADISQSGDSTYYADSVKGRFTISRDNAKNTVYLQMNSLKQEDTAVYYCAAQFLSYAWDYDYWGQGTQVTVSS,low polyreactivity
13,QVQLVESGGGLVQAGGSLRLSCAASGSIFYWNAMGWYRQAPGKERELVAGISQRGGRTSYADSVKGRFTISRDNAKNTVYLQMNSLKPEDTAVYYCAATSVYPRSGSSRYDYWGQGTQVTVSS,low polyreactivity
14,QVQLVESGGGLVQAGGSLRLSCAASGSIFYWNAMGWYRQAPWKERELVASINWSGSTYYADSVKGSFTISRDNAKNTVYLQMNSLKPEDTAVYYCNTDPRVSDASADMEYWGQGTQVTVSS,high polyreactivity
15,QVQLVESGGGLVQAGGSLRLSCAASGSIFYWYAMGWYRQAPGKERELVAAISRNGGNTYYADSVKGRFTISRDNAKNTVYLQMNSLKPEDTAVYYCAVAGTVLSHMGYWGQGTQVTVSS,low polyreactivity
16,QVQLVESGGGLVQAGGSLRLSCAASGSIFYWYAMGWYRQAPGKERELVAAISSGGSTNYADSVKGRFTISRDNAKNTVYLQMNSLKPEDTAVYYCNADIRSFYWEYYTGLDSWGQGTQVTVSS,low polyreactivity
17,QVQLVESGGGLVQAGGSLRLSCAASGSIFYWYAMGWYRQAPGKERELVAAISSSGSTNYADSVKGRFTISRDNAKNTVYLQMNSLKPEDTAVYYCAAYRTGYNGWGYGYWGQGTQVTVSS,high polyreactivity
18,QVQLVESGGGLVQAGGSLRLSCAASGSIFYYAMGWYRQAPGKERELVAAISSGGRTNYADSVKGRFTISRDNAKNTVYLQMNSLKPEDTAVYYCAAVSPYGSQYGYWGQGTQVTVSS,high polyreactivity
19,QVQLVESGGGLVQAGGSLRLSCAASGSIFYYAMGWYRQAPGKERELVATISASGGSTYYADSVKGRFTISRDNEKNTVYLQMNSLKAEDTAVYYCAVRYKSWYGFNYWGQGTQVTVSS,high polyreactivity
20,QVQLVESGGGLVQAGGSLRLSCAASGSIFYYKYAMGWYRQAPGKERELVAAITSTGGTTYYADSVKGRFTISRDNAKNTVYLQMNSLKPEDTAVYYCAALAPYIGGVDYDYWGQGTQVTVSS,low polyreactivity
21,QVQLVESGGGLVQAGGSLRLSCAASGSIFYYNAMGWFRQAGGKERELVAALSWSGGSTYYADSVKGRYTISRDNATNTVSLQMNSLKPEETAVYYCNAVGWYTYFSGSRKYNSWGQGTQVTVSS,low polyreactivity
